Laboratory results: IntAct's records for PubMed 35512704

B1: Mothers against decapentaplegic homolog 4 (Homo sapiens), Q13485 (parent)
chain: MDNMSITNTPTSNDACLSIVHSLMCHRQGGESETFAKRAIESLVKKLKEKKDELDSLITAITTNGAHPSKCVTIQRTLDGRLQVAGRKGFPHVIYARLWRWPDLHKNELKHVKYCQYAFDLKCDSVCVNPYHYERVVSPGIDLSGLTLQSNAPSSMMVKDEYVHDFEGQPSLSTEGHSIQTIQHPPSNRASTETYSTPALLAPSESNATSTANFPNIPVASTSQPASILGGSHSEGLLQIASGPQPGQQQNGFTGQPATYHHNSTTTWTGSRTAPYTPNLPHHQNGHLQHHPPMPPHPGHYWPVHNELAFQPPISNHPAPEYWCSIAYFEMDVQVGETFKVPSSCPIVTVDGYVDPSGGDRFCLGQLSNVHRTEAIERARLHIGKGVQLECKGEGDVWVRCLSDHAVFVQSYYLDREAGRAPGDAVHKIYPSAYIKVFDLRQCHRQMQQQAATAQAAAAAQAAAVAGNIPGPGSVGGIAPAISLSAAAGIGVDDLRRLCILRMSFVKGWGPDYPRQSIKETPCWIEIHLHRALQLLDEVLHTMPIADPQPLD
partner: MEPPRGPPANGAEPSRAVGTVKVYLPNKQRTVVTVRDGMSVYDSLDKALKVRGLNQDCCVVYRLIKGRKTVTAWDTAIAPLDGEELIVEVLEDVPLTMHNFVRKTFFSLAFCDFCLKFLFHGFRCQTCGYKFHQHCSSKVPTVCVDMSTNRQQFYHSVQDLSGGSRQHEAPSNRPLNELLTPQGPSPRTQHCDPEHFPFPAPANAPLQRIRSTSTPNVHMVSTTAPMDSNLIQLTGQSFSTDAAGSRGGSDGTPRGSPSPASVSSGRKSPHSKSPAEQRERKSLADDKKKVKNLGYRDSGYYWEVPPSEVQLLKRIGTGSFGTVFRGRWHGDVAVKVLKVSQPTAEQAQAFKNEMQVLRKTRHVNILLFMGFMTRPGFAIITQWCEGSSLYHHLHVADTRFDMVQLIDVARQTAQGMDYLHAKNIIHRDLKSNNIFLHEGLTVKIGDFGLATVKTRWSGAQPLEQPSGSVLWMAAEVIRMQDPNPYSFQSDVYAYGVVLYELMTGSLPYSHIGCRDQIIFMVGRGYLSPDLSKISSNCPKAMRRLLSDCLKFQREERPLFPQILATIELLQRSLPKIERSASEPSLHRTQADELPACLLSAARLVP
B2: Mothers against decapentaplegic homolog 4 (Homo sapiens), Q13485 (parent)
chain: B1 chain
partner: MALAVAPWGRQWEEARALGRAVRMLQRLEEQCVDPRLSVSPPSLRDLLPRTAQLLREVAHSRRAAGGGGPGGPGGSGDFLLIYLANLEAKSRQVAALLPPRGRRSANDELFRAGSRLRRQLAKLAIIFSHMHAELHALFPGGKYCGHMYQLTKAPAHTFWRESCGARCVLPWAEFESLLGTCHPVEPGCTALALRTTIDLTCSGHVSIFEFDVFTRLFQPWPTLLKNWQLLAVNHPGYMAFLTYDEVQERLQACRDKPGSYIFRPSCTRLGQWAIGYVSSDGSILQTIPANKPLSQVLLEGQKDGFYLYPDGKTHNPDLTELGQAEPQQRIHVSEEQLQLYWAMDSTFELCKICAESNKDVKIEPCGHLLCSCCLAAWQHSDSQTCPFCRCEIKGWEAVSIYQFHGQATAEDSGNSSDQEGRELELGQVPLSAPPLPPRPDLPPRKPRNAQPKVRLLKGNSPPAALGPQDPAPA
B3: Mothers against decapentaplegic homolog 4 (Homo sapiens), Q13485 (parent)
chain: B1 chain
partner: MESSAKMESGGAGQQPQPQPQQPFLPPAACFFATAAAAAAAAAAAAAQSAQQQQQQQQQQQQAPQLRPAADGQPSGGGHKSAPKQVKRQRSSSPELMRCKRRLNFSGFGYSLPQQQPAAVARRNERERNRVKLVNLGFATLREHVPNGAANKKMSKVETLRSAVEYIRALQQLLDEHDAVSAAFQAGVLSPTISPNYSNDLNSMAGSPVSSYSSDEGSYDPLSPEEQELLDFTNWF
B4: Mothers against decapentaplegic homolog 4 (Homo sapiens), Q13485 (parent)
chain: B1 chain
partner: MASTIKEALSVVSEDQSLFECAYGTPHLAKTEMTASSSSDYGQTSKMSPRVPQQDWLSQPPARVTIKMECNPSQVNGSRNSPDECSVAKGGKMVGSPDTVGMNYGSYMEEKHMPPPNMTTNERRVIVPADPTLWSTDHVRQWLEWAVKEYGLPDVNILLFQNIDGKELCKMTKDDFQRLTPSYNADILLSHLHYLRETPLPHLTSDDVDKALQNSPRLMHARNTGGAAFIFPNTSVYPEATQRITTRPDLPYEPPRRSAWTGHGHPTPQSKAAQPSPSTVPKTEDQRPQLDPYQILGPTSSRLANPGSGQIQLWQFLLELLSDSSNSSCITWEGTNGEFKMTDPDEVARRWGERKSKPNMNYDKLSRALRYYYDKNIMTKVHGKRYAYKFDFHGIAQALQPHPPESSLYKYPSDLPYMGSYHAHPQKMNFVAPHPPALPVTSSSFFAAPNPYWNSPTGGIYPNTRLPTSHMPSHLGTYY
B5: Mothers against decapentaplegic homolog 4 (Homo sapiens), Q13485 (parent)
chain: B1 chain
partner: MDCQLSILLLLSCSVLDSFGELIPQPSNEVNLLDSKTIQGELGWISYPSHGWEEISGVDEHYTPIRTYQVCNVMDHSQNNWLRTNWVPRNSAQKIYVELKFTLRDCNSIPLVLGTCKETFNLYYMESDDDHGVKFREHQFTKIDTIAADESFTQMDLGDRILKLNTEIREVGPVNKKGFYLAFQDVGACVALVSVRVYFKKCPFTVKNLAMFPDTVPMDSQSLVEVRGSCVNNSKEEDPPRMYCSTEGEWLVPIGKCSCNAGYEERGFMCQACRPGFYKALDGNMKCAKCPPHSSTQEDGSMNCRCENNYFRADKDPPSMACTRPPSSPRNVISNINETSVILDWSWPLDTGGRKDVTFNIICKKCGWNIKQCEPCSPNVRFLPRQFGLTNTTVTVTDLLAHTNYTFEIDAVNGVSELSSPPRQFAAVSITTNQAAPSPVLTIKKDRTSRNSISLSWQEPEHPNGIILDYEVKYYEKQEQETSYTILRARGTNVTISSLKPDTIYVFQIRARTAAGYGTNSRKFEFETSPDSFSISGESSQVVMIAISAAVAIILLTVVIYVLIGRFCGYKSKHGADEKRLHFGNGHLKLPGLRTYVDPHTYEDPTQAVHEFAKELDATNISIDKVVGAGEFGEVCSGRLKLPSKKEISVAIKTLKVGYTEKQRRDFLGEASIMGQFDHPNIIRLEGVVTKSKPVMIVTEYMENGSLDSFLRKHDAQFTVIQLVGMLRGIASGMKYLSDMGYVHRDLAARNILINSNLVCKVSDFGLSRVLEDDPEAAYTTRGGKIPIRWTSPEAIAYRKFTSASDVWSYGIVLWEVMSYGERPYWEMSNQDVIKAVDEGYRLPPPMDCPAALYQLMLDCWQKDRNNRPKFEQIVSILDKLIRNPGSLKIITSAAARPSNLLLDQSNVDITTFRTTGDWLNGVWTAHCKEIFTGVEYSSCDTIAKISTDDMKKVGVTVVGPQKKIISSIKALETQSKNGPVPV

Variants of: B1
Settings: with araf_human ARAF

Variant | effect of a mutation on the interaction
D351H | with no effect

Variants of: B2
Settings: with cblc_human CBLC

Variant | effect of a mutation on the interaction
R361C | with no effect

Variants of: B2
Settings: with cblc_human CBLC
Remark: another data set of the same source

Variant | effect of a mutation on the interaction
R361H | with no effect

Variants of: B2
Settings: with cblc_human CBLC
Remark: another data set of the same source

Variant | effect of a mutation on the interaction
G386D | with no effect

Variants of: B2
Settings: with cblc_human CBLC
Remark: another data set of the same source

Variant | effect of a mutation on the interaction
D351H | with no effect

Variants of: B3
Settings: with ascl1_human ASCL1, P50553

Variant | effect of a mutation on the interaction
R361H | with no effect

Variants of: B3
Settings: with ascl1_human ASCL1, P50553
Remark: another data set of the same source

Variant | effect of a mutation on the interaction
R361C | with no effect

Variants of: B3
Settings: with ascl1_human ASCL1, P50553
Remark: another data set of the same source

Variant | effect of a mutation on the interaction
G386D | with no effect

Variants of: B3
Settings: with ascl1_human ASCL1, P50553
Remark: another data set of the same source

Variant | effect of a mutation on the interaction
D351H | with no effect

Variants of: B4
Settings: with erg_human ERG

Variant | effect of a mutation on the interaction
R361C | with no effect

Variants of: B4
Settings: with erg_human ERG
Remark: another data set of the same source

Variant | effect of a mutation on the interaction
R361H | with no effect

Variants of: B4
Settings: with erg_human ERG
Remark: another data set of the same source

Variant | effect of a mutation on the interaction
D351H | with no effect

Variants of: B4
Settings: with erg_human ERG
Remark: another data set of the same source

Variant | effect of a mutation on the interaction
G386D | with no effect

Variants of: B5
Settings: with epha3_human EPHA3, P29320

Variant | effect of a mutation on the interaction
G386D | with no effect

Variants of: B5
Settings: with epha3_human EPHA3, P29320
Remark: another data set of the same source

Variant | effect of a mutation on the interaction
G386D | increasing interaction strength
